Bridges are numbered along the chain shown (N, C = ends). Where no end group is shown, it is not given here.
Biological target: guanylate cyclase C (human, UniProt P25092 24-1073)
Assay: cell-based or functional assay

Sequence of guanylate cyclase C (P25092 24-1073): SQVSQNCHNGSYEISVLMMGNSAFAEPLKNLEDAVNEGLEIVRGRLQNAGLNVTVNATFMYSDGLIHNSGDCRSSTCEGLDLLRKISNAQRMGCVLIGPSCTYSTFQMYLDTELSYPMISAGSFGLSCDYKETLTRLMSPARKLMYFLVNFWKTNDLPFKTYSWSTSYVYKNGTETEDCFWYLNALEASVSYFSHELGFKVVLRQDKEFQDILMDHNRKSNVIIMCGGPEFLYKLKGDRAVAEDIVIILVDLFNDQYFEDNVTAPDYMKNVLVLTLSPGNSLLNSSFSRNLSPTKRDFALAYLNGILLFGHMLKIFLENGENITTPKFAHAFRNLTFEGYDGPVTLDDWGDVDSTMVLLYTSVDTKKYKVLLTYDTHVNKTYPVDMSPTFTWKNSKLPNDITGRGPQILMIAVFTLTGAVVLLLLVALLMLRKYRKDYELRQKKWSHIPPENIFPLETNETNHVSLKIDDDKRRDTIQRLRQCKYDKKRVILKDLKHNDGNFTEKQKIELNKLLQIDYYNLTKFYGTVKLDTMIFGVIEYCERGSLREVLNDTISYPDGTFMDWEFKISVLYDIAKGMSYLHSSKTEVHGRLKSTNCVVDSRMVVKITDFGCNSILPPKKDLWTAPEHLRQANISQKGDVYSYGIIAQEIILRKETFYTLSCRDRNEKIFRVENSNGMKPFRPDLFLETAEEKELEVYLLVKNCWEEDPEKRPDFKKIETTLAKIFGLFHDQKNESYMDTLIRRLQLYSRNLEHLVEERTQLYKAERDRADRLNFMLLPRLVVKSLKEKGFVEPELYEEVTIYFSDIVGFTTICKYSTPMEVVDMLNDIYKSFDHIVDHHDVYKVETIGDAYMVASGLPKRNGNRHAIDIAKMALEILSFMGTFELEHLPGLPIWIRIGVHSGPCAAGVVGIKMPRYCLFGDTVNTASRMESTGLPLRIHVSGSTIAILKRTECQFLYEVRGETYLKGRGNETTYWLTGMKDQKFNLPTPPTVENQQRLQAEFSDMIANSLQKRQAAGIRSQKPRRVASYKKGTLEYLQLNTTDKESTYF

Question: With NDECELCVNVACTGC (disulfide 4-12, 7-15) [SP-338] as the binder, how does the “stimulation of cGMP synthesis in T84 cells (peptide at 1.0 µM, 30 min), biological activity relative to SP-304” value read?
Answer: Its value is ~80 % of the biological activity of SP-304.
